Data reported in patent US20210283212A1 (RA PHARMACEUTICALS, published 2021).
Where two headings read alike, the source gives them in different places. Blank lines part the entries; values can stand above or below the binder they belong to. Positions of bridges follow the written chain, without caps; N, C: chain ends. Non-standard residues stand in square brackets, D forms with d. Primed or numbered codes have the meaning given here. No end group written: not given here. mXylyl(3) = bridging moiety between the two residues given in brackets; mXylyl″ = bridging moiety between the two marked residues; Trp(7-aza) = N[C@@H](Cc1c[nH]c2ncccc12)C(=O)O; mXylyl(4) = bridging moiety between residues; Trp(1-Me) = Cn1cc(C[C@H](N)C(=O)O)c2ccccc21; Phg = N[C@H](C(=O)O)c1ccccc1; Tle = CC(C)(C)[C@H](N)C(=O)O; NMeS = CN[C@@H](CO)C(=O)O; Nva = CCC[C@H](N)C(=O)O

Experiments:
Assay in all cases: cell-based or functional assay
human C5 protein [1] = molecular target: T1, human C5 protein (human, UniProt P01031 19-673; P01031 678-1676)
human C5 protein [2] = molecular target: T1, human C5 protein; remark: listed apart in the source
human C5 protein [3] = molecular target: T1, human C5 protein; remark: listed apart in the source
human C5 protein [4] = molecular target: T1, human C5 protein; remark: listed apart in the source
human C5 protein [5] = molecular target: T1, human C5 protein; remark: listed apart in the source
human C5 protein [6] = molecular target: T1, human C5 protein; remark: listed apart in the source
primate C5 protein = primate C5 protein (primate, UniProt A0A2K5U1T1 19-673; A0A2K5U1T1 678-1676, Mature C5 is a disulfide-linked heterodimer of beta and alpha chains; it is glycosylated. The letters do not carry either feature.)
Sequence of primate C5 protein (beta, as listed by the source limits assumed, chain 1 of 2): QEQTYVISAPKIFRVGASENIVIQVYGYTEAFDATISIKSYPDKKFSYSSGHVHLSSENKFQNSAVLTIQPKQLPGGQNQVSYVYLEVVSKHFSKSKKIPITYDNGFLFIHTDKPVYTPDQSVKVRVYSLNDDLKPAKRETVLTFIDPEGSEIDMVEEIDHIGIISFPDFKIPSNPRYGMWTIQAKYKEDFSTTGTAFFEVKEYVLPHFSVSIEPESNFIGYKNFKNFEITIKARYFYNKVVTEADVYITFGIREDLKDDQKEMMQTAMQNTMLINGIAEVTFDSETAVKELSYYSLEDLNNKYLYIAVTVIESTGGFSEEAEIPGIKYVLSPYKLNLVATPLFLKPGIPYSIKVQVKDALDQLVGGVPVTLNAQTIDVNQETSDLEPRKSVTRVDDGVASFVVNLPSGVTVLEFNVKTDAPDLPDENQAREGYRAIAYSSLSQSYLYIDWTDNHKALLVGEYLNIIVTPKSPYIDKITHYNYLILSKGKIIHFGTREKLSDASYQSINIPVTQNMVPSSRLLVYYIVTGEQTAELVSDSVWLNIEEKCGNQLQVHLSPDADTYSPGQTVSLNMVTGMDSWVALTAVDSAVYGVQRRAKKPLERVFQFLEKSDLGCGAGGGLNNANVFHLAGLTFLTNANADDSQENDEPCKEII
Sequence of primate C5 protein (alpha, as listed by the source limits assumed, chain 2 of 2): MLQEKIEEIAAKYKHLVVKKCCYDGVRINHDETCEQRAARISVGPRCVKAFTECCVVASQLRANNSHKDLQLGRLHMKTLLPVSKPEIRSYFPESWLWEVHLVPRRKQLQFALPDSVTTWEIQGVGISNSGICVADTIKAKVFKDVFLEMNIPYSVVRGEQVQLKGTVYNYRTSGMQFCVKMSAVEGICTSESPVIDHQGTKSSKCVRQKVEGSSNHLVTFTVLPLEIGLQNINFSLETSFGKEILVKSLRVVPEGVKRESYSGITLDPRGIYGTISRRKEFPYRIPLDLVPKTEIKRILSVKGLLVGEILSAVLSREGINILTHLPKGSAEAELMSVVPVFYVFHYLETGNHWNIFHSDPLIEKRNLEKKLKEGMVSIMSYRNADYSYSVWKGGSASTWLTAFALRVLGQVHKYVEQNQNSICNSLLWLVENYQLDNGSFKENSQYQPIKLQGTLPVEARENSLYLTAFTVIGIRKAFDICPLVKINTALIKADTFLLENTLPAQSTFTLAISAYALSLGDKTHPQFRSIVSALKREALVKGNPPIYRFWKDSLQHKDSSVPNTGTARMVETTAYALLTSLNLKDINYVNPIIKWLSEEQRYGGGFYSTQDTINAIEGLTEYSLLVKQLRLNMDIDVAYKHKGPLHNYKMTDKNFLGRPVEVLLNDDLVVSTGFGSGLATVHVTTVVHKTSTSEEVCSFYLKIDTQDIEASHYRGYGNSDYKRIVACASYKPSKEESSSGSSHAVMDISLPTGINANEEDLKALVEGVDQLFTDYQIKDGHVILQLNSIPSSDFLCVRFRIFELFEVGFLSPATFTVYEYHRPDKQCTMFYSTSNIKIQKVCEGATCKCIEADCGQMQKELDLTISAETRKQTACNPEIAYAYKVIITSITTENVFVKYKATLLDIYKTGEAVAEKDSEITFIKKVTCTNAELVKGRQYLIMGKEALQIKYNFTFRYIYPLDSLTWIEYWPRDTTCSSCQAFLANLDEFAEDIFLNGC

B1: R3002 (peptide)
peptide: VCYENGYWEYPGV
modifications: Ac-Nvl-C-Y-E-N-Tbg-Y-azaTrp-E-Y-P-Phg-Nvl-NH2
- IC50, formation of C5a (C5a EIA on human RBC hemolysis supernatant) (human C5 protein [1]): 0.0054 µM

B2: R3128 (peptide)
peptide: Ac-[Nva]CYNN[Tle]ECEYP[Phg][Tle]-NH2
modifications: cysteine pairing not given here
- Avg. IC50, human hemolysis assay (human C5 protein [2]): > 100 µM
- Avg. IC50 (nM), human hemolysis assay (human C5 protein [3]): > 100000 nM

B3: R3092 (peptide)
peptide: Ac-[Nva]C[Phg]TFEY[NMeS]AC[Nva]-NH2
modifications: linker 2-10 via mXylyl(3)
- Avg. IC50, human hemolysis assay (human C5 protein [2]): > 50 µM
- Avg. IC50 (nM), human hemolysis assay (human C5 protein [4]): > 50000 nM

B4: R3125 (peptide)
peptide: Ac-CVERFCWEF-NH2
modifications: linker 1-6 via mXylyl(3)
- Avg. IC50, human hemolysis assay (human C5 protein [2]): > 100 µM
- Avg. IC50 (nM), human hemolysis assay (human C5 protein [5]): > 100000 nM

B5: R3129 (peptide)
peptide: Ac-[Nva]CYNN[Tle]ECEYP[Phg][Tle]-NH2
modifications: linker 2-8 via mXylyl(3)
- Avg. IC50, human hemolysis assay (human C5 protein [2]): > 100 µM
- Avg. IC50 (nM), human hemolysis assay (human C5 protein [3]): > 100000 nM

B6: R3124 (peptide)
peptide: Ac-CVERFCVYWEF-NH2
modifications: linker 1-6 via mXylyl(3)
- Avg. IC50, human hemolysis assay (human C5 protein [2]): > 100 µM
- Avg. IC50 (nM), human hemolysis assay (human C5 protein [5]): > 100000 nM

B7: R3047 (peptide)
peptide: MCVERFC-NH2
modifications: linker 2-7 via mXylyl(4)
- Avg. IC50, human hemolysis assay (human C5 protein [2]): > 100 µM
- Avg. IC50 (nM), human hemolysis assay (human C5 protein [6]): > 100000 nM

B8: R3017 (peptide)
peptide: Ac-[Nva]CYEN[Tle]YCEYP[Phg][Nva]-NH2
modifications: linker 2-8 via mXylyl″
- Avg. IC50, human hemolysis assay (human C5 protein [2]): > 100 µM
- Avg. IC50 (nM), human hemolysis assay (human C5 protein [3]): > 100000 nM

B9: R3110 (peptide)
peptide: Ac-YEN[Tle]Y[Trp(1-Me)]EYP[Phg][Nva]-NH2
SMILES: CCC[C@H](NC(=O)[C@@H](NC(=O)[C@@H]1CCCN1C(=O)[C@H](Cc1ccc(O)cc1)NC(=O)[C@H](CCC(=O)O)NC(=O)[C@H](Cc1cn(C)c2ccccc12)NC(=O)[C@H](Cc1ccc(O)cc1)NC(=O)[C@@H](NC(=O)[C@H](CC(N)=O)NC(=O)[C@H](CCC(=O)O)NC(=O)[C@H](Cc1ccc(O)cc1)NC(C)=O)C(C)(C)C)c1ccccc1)C(N)=O
- Avg. IC50, human hemolysis assay (human C5 protein [2]): 2.94 µM
- Avg. IC50 (nM), human hemolysis assay (human C5 protein [3]): 2940 nM

B10: R3044 (peptide)
peptide: MCVERFCDVYW-NH2
modifications: linker 2-7 via mXylyl(4)
- Avg. IC50, human hemolysis assay (human C5 protein [2]): > 50 µM
- Avg. IC50 (nM), human hemolysis assay (human C5 protein [6]): > 50000 nM

B11: R3046 (peptide)
peptide: MCVERFCDV-NH2
modifications: linker 2-7 via mXylyl(4)
- Avg. IC50, human hemolysis assay (human C5 protein [2]): > 100 µM
- Avg. IC50 (nM), human hemolysis assay (human C5 protein [6]): > 100000 nM

B12: R3034 (peptide)
peptide: Ac-[Nva]C[Phg]TAEY[NMeS]HC[Nva]-NH2
modifications: linker 2-10 via mXylyl(4)
- Avg. IC50, human hemolysis assay (human C5 protein [2]): > 50 µM
- Avg. IC50 (nM), human hemolysis assay (human C5 protein [4]): > 50000 nM

- IC50, alternative pathway of complement activation (WIESLAB kit, serum samples) (human C5 protein [1]): 0.0125 µM
B13: R3183 (peptide)
peptide: KVERFDDGYWEYPGK
modifications: [cyclo(1,6)]Ac-K-V-E-R-F-D-(N-Me)D-Tbg-Y-azaTrp-E-Y-P-Chg-(Lys-C16)
- IC50, hemolysis assay with 1% cynomolgus monkey serum (primate C5 protein): 0.0042 µM
- IC50, formation of the MAC (MAC EIA on human RBC hemolysis supernatant) (human C5 protein [1]): 0.0069 µM

B14: R3043 (peptide)
peptide: MCVERFCDVYWE-NH2
modifications: linker 2-7 via mXylyl(4)
- Avg. IC50, human hemolysis assay (human C5 protein [2]): 0.934 µM
- Avg. IC50 (nM), human hemolysis assay (human C5 protein [6]): 934 nM

B15: R3048 (peptide)
peptide: Ac-CVERFCDVYWEF-NH2
modifications: linker 1-6 via mXylyl(4)
- Avg. IC50, human hemolysis assay (human C5 protein [2]): 0.0193 µM
- Avg. IC50 (nM), human hemolysis assay (human C5 protein [5]): 19.3 nM

B16: R3045 (peptide)
peptide: MCVERFCDVY-NH2
modifications: linker 2-7 via mXylyl(4)
- Avg. IC50, human hemolysis assay (human C5 protein [2]): > 100 µM
- Avg. IC50 (nM), human hemolysis assay (human C5 protein [6]): > 100000 nM

B17: R3041 (peptide)
peptide: Ac-YEN[Tle]YWEYP[Phg][Nva]-NH2
SMILES: CCC[C@H](NC(=O)[C@@H](NC(=O)[C@@H]1CCCN1C(=O)[C@H](Cc1ccc(O)cc1)NC(=O)[C@H](CCC(=O)O)NC(=O)[C@H](Cc1c[nH]c2ccccc12)NC(=O)[C@H](Cc1ccc(O)cc1)NC(=O)[C@@H](NC(=O)[C@H](CC(N)=O)NC(=O)[C@H](CCC(=O)O)NC(=O)[C@H](Cc1ccc(O)cc1)NC(C)=O)C(C)(C)C)c1ccccc1)C(N)=O
- Avg. IC50, human hemolysis assay (human C5 protein [2]): 0.0713 µM
- Avg. IC50 (nM), human hemolysis assay (human C5 protein [3]): 71.3 nM

B18: R3008 (peptide)
peptide: Ac-[Nva]C[Phg]T[Trp(7-aza)]EY[NMeS]HC[Nva]P[Nva]-NH2
modifications: linker 2-10 via mXylyl″
- Avg. IC50, human hemolysis assay (human C5 protein [2]): 0.097 µM
- Avg. IC50 (nM), human hemolysis assay (human C5 protein [4]): 97 nM
- IC50, formation of C5a (C5a EIA on human RBC hemolysis supernatant) (human C5 protein [1]): 0.0545 µM
- IC50, formation of the MAC (MAC EIA on human RBC hemolysis supernatant) (human C5 protein [1]): 0.033 µM

B19: R3119 (peptide)
peptide: Ac-YENY[dW]EYP[Phg][Nva]-NH2
SMILES: CCC[C@H](NC(=O)[C@@H](NC(=O)[C@@H]1CCCN1C(=O)[C@H](Cc1ccc(O)cc1)NC(=O)[C@H](CCC(=O)O)NC(=O)[C@@H](Cc1c[nH]c2ccccc12)NC(=O)[C@H](Cc1ccc(O)cc1)NC(=O)[C@H](CC(N)=O)NC(=O)[C@H](CCC(=O)O)NC(=O)[C@H](Cc1ccc(O)cc1)NC(C)=O)c1ccccc1)C(N)=O
- Avg. IC50, human hemolysis assay (human C5 protein [2]): > 100 µM
- Avg. IC50 (nM), human hemolysis assay (human C5 protein [3]): > 100000 nM
